Data reported in the RNAGym collection of RNA variant scans (doi:10.1073/pnas.2313332121).

B1: TPR t1 (parent)
chain: GACCAAUCUGCCCUCAGAGCUCGAGAACAUCUUCGGAUGCAGAGGAGGCAGGCUUCGGUGGCGCGAUAGCGCCAACGUCCUCAACCUCCAAUGCAUCCCACCACAUGAUGAUGCCUGAAGAGCCUUGGUUUUUUG

Variants of: B1
Assay: polymerase ribozyme fitness, log enrichment relative to wild type (log ratio); higher = more active; in vitro selection for triplet polymerase activity
Procedure, shortened: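 Mutant libraries were PCR-built and transcribed for each subunit of a heterodimeric triplet polymerase ribozyme and selected for one round in triplicate at −7 °C, frozen, before gel excision of extended constructs and streptavidin-bead capture. Input and output libraries were Illumina-sequenced, keeping genotypes with ≥10 input reads and ≥1 read per output. Fitness is a logarithmic ratio of genotype to wild-type enrichment, in base 2, using inverse-variance-weighted replicate averages.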

Variant	polymerase ribozyme fitness (log ratio)
C12U G60U G69A C86U C101A U112C	-6.42
C12U G61A A84U	0.279
C12U G61A U106A C114A	-0.698
C12U G61C C94U	-0.805
C12U G61U	0.129
C12U G61U A105G	-1.62
C12U G63A G113A	-1.59
C12U G63C C82U A103C	-6.59
C12U G69C	-0.628
C12U G69C C73U U129G	-3.42
C12U G69U U78G A100U	-0.359
C12U G71A A111C C115A U131G U133A	-0.622
C12U G110U	-0.322
C12U G117A	0.626
C12U G122U	1.06
C12U U14A	-2.23
C12U U14A G110U G113A U130C	-4.17
C12U U14C C72G C82G U112A	0.602
C12U U14G C15G G61A C88U U129C	-1.38
C12U U21A G35A	-4.8
C12U U21G C62G A74C U78A	-3.33
C12U U30G G63U G113C G117C	-7.89
C12U U32C G69U C76G G77U C80U A84G	-4.98
C12U U33G G69U C99A C115A U125C	-6.8

Variant	polymerase ribozyme fitness (log ratio)
C12U U33G U131A	-4.55
C12U U38G C62U C76U C79A	-1.79
C12U U38G C72G	-0.666
C12U U54A C64U	0.381
C12U U55G U59C U133A	-0.128
C12U U59G	0.247
C12U U87A	0.248
C12U U106A	0.462
C12U U109C	-2.5
C12U U116G	-0.0621
C12U U129A	-0.808
C12U U133A	0.306
C13A A16U C94U A111U C123G U130C	-6.28
C13A A16U G71C G120C	-0.814
C13A A18G	-3.1
C13A A24G A29G C94A	-4.2
C13A A26G C53G A84U A90G	-4.94
C13A A27C G36A	-4.52
C13A A27U A43U G57C	-4.33
C13A A29G C53U	-2.88
C13A A41G G63A U132C	-4.55
C13A A41U G45C C82A	-4.65
C13A A41U G57U	-3.67
C13A A46C G69C C124G	-1.36

Variant	polymerase ribozyme fitness (log ratio)
C13A A50U	-3.1
C13A A50U G71U	-2.57
C13A A74G C86A C101G	-4.34
C13A A83U	-2.07
C13A A90U	-3.48
C13A A100U U131G	-2.21
C13A A121C G128C	-1.87
C13A C15G U106A G117C	-0.827
C13A C28G C34A A84C G110C	-1.53
C13A C28G C34A G69A A84C G110C	-4.89
C13A C40U	-1.37
C13A C40U C88U C101A U112A	-2.49
C13A C49A G71A	-1.76
C13A C49G C56G U96A	-3.42
C13A C49U G51U G69U A111U G120A	-6.99
C13A C49U U87G C123A U131G	-0.403
C13A C53U	-2
C13A C56A	-1.3
C13A C56G	-2.27
C13A C56U C80A	-2.82
C13A C64U	-1.99
C13A C70G U112A C123U	-4
C13A C73G	-3.11
C13A C73G G120A C123A	-1.91

Variant	polymerase ribozyme fitness (log ratio)
C13A C76G C97U C102A C104U	-3.66
C13A C79G	-3.47
C13A C88G A105G G120U	-4.2
C13A C88U	-2.04
C13A C89A	-3.37
C13A C94G C101A	-4.8
C13A C101U	-2.13
C13A G19C G69U G110U U112C	-5.05
C13A G19U C82A U87G G120A	-3.21
C13A G36A G52U C97U A111C	-2.68
C13A G36C	-1.87
C13A G39C C76G U106C	-2.79
C13A G39U U59G G69C	-3.36
C13A G42C A66C C99U C101U C114U G127U	-6.24
C13A G44A C89U C102G	-6.88
C13A G45A G113U G117C	-6.5
C13A G48A	-2.23
C13A G48A G61A U106A A118G	-2.04
C13A G48A U96A	-2.1
C13A G51A	-4.85
C13A G61A	-1.81
C13A G61A C89A	-3.18
C13A G63A A74C G128A	-5.18
C13A G69U A74U U87A A100C U109A	-5.82

Variant	polymerase ribozyme fitness (log ratio)
C13A G69U C73G	-5.01
C13A G71A A90G	-2.51
C13A G71U A74G U109A	-6.36
C13A U14G G42A A84U	-3.34
C13A U38C C49G G61U U106G C115G G135C	-6
C13A U78G C88A A105U	-4.55
C13A U81A	-3.27
C13A U109A G110C G128U	-3.64
C13A U130A	-2.56
C13G A16U C49A G63A	-3.65
C13G A16U C82A C89G	-4.33
C13G A18G	-5.42
C13G A24G A27G C56G A111C	-7.83
C13G A26G C49A U96A	-5.63
C13G A29G G42A	-5.99
C13G A37G	-2.1
C13G A37U	-1.57
C13G A37U C53A C79A U87C U129C	-5.34
C13G A37U G48A C49U C85U G93C G120U	-1.53
C13G A41C	-3.32
C13G A41C A50U U133A	-4.37
C13G A41U C97U	-3.81
C13G A50U	-3.13
C13G A66U C114A	-4.3

Variant	polymerase ribozyme fitness (log ratio)
C13G A74G C79U	-1.86
C13G A90C A95G	-3.14
C13G C15A	-2.5
C13G C15G A26U C94A C114U	-6.55
C13G C15U	-2.51
C13G C15U G58C	-3.58
C13G C15U G69A C114U	-6.44
C13G C15U G120A	-2.44
C13G C20A C49U C64U U96G	-4.56
C13G C20U G93A C124A	-1.04
C13G C22G C53U G60A U92C A118U	-5.33
C13G C22G C72G C94U C99A G120C	-6.57
C13G C22U G39U C53G	-5.48
C13G C22U G113A	-4.71
C13G C28G U96A	-4.5
C13G C28U	-3.35
C13G C34A	-4.26
C13G C40A C123U	-0.0334
C13G C40A U133A	-2.76
C13G C40G	-0.654
C13G C49A G60U	-2.3
C13G C49U G51A U125A	-4.36
C13G C53A G69U C79A G120C	-0.403
C13G C53G C72U	-1.34

Variant	polymerase ribozyme fitness (log ratio)
C13G C53G G63C	-2.03
C13G C53G G93C C101A	-3.63
C13G C53U	-1.87
C13G C56G C86G C98A C101A C102U G113A	-6.46
C13G C56G C101U	-2.67
C13G C56U	-1.58
C13G C62U U125A	-1.62
C13G C72A C82A U96G A100U C115A	-3.76
C13G C72U A119U	0.275
C13G C73U A91C	-2.89
C13G C79A G113A	-3.53
C13G C79U	-2.23
C13G C82U	-2.11
C13G C85A U112C	-1.28
C13G C85G C86A	-3.16
C13G C85G U112A G120C	-1.17
C13G C85U C88A C102A A105G C124U	-6.67
C13G C94A C101G C123G	-1.76
C13G C94U	-1.78
C13G G17A U55G	-5.5
C13G G17C A75U U87G U96A C104U	-5.5
C13G G17C U112G U116G	-4.51
C13G G25C C49A C98U U112A C115G	-7.45
